According to patent US20210292396A1:

Legend:
Assay in all cases: cell-based or functional assay
[1] = biological target: HIV Env of isolate SO18.18 (HIV)
[2] = biological target: HIV Env of isolate CAP256.206.C9 (HIV)
[3] = biological target: Env of HIV isolate CNE21 (clade BC) (HIV)
[4] = biological target: Env of HIV isolate M02138 (clade AE) (HIV)
Env of SIVmac251.30.SG3 = biological target: Env of SIVmac251.30.SG3
[5] = biological target: Env of HIV isolate Ce1176.A3 (clade C) (HIV)
Envelope of SVA.MLV = biological target: Envelope of SVA.MLV
[6] = biological target: HIV Env of isolate 25710-2.43 (HIV)
[7] = biological target: Env of HIV isolate Bal.01 (clade B) (HIV)
[8] = biological target: HIV Env of isolate 0921.v2.c14 (HIV)
[9] = biological target: Env of HIV isolate BG1168.01 (clade B) (HIV)
[10] = biological target: Env of HIV isolate TZBD.02 (clade C) (HIV)
[11] = biological target: Env of HIV isolate 286.36 (clade C) (HIV)
[12] = biological target: Env of HIV isolate A07412M1.vrc12 (clade D) (HIV)
[13] = biological target: Env of HIV isolate 191821.E6.1 (clade D) (HIV)
[14] = biological target: HIV Env of isolate DU156.12 (HIV)
[15] = biological target: Env of HIV isolate CNE59 (clade AE) (HIV)
[16] = biological target: Env of HIV isolate 00836-2.5 (clade C) (HIV)
[17] = biological target: Env of HIV isolate ZM233.6 (clade C) (HIV)
[18] = biological target: Env of HIV isolate C3347.c11 (clade AE) (HIV)
[19] = biological target: HIV Env of isolate CNE7 (HIV)
[20] = biological target: Env of HIV isolate KER2018.11 (clade A) (HIV)
[21] = biological target: Env of HIV isolate JRFL.JB (clade B) (HIV)
[22] = biological target: Env of HIV isolate SC422.8 (clade B) (HIV)
[23] = biological target: Env of HIV isolate T253-11 (clade AG) (HIV)
[24] = biological target: Env of HIV isolate MB539.2B7 (clade A) (HIV)
[25] = biological target: Env of HIV isolate 271-11 (clade AG) (HIV)
[26] = biological target: Env of HIV isolate BB201.B42 (clade A) (HIV)
[27] = biological target: HIV Env of isolate CNE20 (HIV)
[28] = biological target: Env of HIV isolate 3365.v2.c20 (clade A) (HIV)
[29] = biological target: Env of HIV isolate 57128.vrc15 (clade D) (HIV)
[30] = biological target: HIV Env of isolate TZA125.17 (HIV)
[31] = biological target: HIV Env of isolate X1254.c3 (HIV)
[32] = biological target: Env of HIV isolate CAP256.206.C9 (clade C) (HIV)
[33] = biological target: HIV Env of isolate CNE30 (HIV)
[34] = biological target: Env of HIV isolate DU172.17 (clade C) (HIV)
[35] = biological target: Env of HIV isolate CAAN.A2 (clade B) (HIV)
[36] = biological target: HIV Env of isolate ZM214.15 (HIV)
[37] = biological target: HIV Env of isolate CE703010217.B6 (HIV)
[38] = biological target: Env of HIV isolate 0921.v2.c14 (clade C) (HIV)
[39] = biological target: Env of HIV isolate X2088.c9 (clade G) (HIV)
[40] = biological target: Env of HIV isolate CNE55 (clade AE) (HIV)
[41] = biological target: HIV Env of isolate X1632.S2.B10 (HIV)
[42] = biological target: HIV Env of isolate 6631.v3.c10 (HIV)
[43] = biological target: Env of HIV isolate 3589.v1.c4 (clade AC) (HIV)
[44] = biological target: Env of HIV isolate 3337.v2.c6 (clade CD) (HIV)
[45] = biological target: Env of HIV isolate Q461.e2 (clade AD) (HIV)
[46] = biological target: Env of HIV isolate 6644.v2.c33 (clade C) (HIV)
[47] = biological target: Env of HIV isolate X1632.S2.B10 (clade G) (HIV)
[48] = biological target: Env of HIV isolate DU123.06 (clade C) (HIV)

B1: ePGT121.15 (ePGT121.15.H6 VH and ePGT121.15.L1 VL) (antibody, V domains shown)
VH: QMQLQESGPGLVKPGETLSLTCSVSGASISSSYWSWLRETPGKGLEWIGYTHHSGDTNYAPSLKSRVHLGLHPSKNQVSLSLTSVTAADTAVYYCARTLHGRRIYGVVAFNEFFTYFYWEVWGKGTQVTVSS
VL: SDISVAPGETVRISCGGESIGSRAVQWYQHRAGQAPKLIIYNNQDRPPGIPERFSGSPDIDFGTTATLTITNVEAGDEATYYCHIWDSRRPTNWVFGGGTTLTVL
How did the IC80, pseudovirus neutralization [1] turn out when B1 was run?
Its IC80, pseudovirus neutralization is 0.009 µg/mL.

And the IC80, pseudovirus neutralization [2]?
The IC80, pseudovirus neutralization was 0.006 µg/mL.

What about the IC50, pseudovirus neutralization [3] of the same binder?
Its IC50, pseudovirus neutralization is 0.002 µg/mL.

And the IC50, pseudovirus neutralization [4]?
The IC50, pseudovirus neutralization was greater than 50 µg/mL.

What about the IC80, pseudovirus neutralization (Env of SIVmac251.30.SG3) of the same binder?
Its IC80, pseudovirus neutralization is greater than 50 µg/mL.

What about the IC50, pseudovirus neutralization [5] of the same binder?
Its IC50, pseudovirus neutralization is 0.003 µg/mL.

And the IC80, pseudovirus neutralization (Envelope of SVA.MLV)?
Its IC80, pseudovirus neutralization is greater than 50 µg/mL.

What about the IC80, pseudovirus neutralization [6] of the same binder?
Its IC80, pseudovirus neutralization is 0.021 µg/mL.

What about the IC50, pseudovirus neutralization [7] of the same binder?
The IC50, pseudovirus neutralization was 0.002 µg/mL.

And the IC80, pseudovirus neutralization [8]?
The IC80, pseudovirus neutralization was 5.71 µg/mL.

And the IC50, pseudovirus neutralization [9]?
Its IC50, pseudovirus neutralization is greater than 50 µg/mL.

And the IC50, pseudovirus neutralization [10]?
Its IC50, pseudovirus neutralization is 0.003 µg/mL.

And the IC50, pseudovirus neutralization [11]?
Its IC50, pseudovirus neutralization is 0.002 µg/mL.

And the IC50, pseudovirus neutralization [12]?
Its IC50, pseudovirus neutralization is 0.005 µg/mL.

And the IC50, pseudovirus neutralization [13]?
Its IC50, pseudovirus neutralization is 0.249 µg/mL.

What about the IC80, pseudovirus neutralization [14] of the same binder?
The IC80, pseudovirus neutralization was 0.005 µg/mL.

And the IC50, pseudovirus neutralization [15]?
Its IC50, pseudovirus neutralization is greater than 50 µg/mL.

And the IC50, pseudovirus neutralization [16]?
The IC50, pseudovirus neutralization was 2.25 µg/mL.

And the IC50, pseudovirus neutralization [17]?
The IC50, pseudovirus neutralization was 0.016 µg/mL.

What about the IC50, pseudovirus neutralization [18] of the same binder?
Its IC50, pseudovirus neutralization is greater than 50 µg/mL.

What about the IC80, pseudovirus neutralization [19] of the same binder?
Its IC80, pseudovirus neutralization is 0.013 µg/mL.

What about the IC50, pseudovirus neutralization [20] of the same binder?
The IC50, pseudovirus neutralization was greater than 50 µg/mL.

And the IC50, pseudovirus neutralization [21]?
The IC50, pseudovirus neutralization was 0.014 µg/mL.

And the IC50, pseudovirus neutralization [22]?
Its IC50, pseudovirus neutralization is 0.011 µg/mL.

And the IC50, pseudovirus neutralization [23]?
Its IC50, pseudovirus neutralization is 0.009 µg/mL.

What about the IC50, pseudovirus neutralization [24] of the same binder?
Its IC50, pseudovirus neutralization is greater than 50 µg/mL.

And the IC50, pseudovirus neutralization [25]?
Its IC50, pseudovirus neutralization is greater than 50 µg/mL.

And the IC50, pseudovirus neutralization [26]?
The IC50, pseudovirus neutralization was 0.003 µg/mL.

What about the IC80, pseudovirus neutralization [27] of the same binder?
Its IC80, pseudovirus neutralization is 0.005 µg/mL.

What about the IC50, pseudovirus neutralization [28] of the same binder?
Its IC50, pseudovirus neutralization is 0.006 µg/mL.

What about the IC50, pseudovirus neutralization [29] of the same binder?
The IC50, pseudovirus neutralization was 0.007 µg/mL.

And the IC80, pseudovirus neutralization [30]?
The IC80, pseudovirus neutralization was 0.403 µg/mL.

What about the IC80, pseudovirus neutralization [31] of the same binder?
The IC80, pseudovirus neutralization was 0.009 µg/mL.

What about the IC50, pseudovirus neutralization [32] of the same binder?
Its IC50, pseudovirus neutralization is 0.003 µg/mL.

What about the IC80, pseudovirus neutralization [33] of the same binder?
Its IC80, pseudovirus neutralization is 0.027 µg/mL.

What about the IC50, pseudovirus neutralization [34] of the same binder?
The IC50, pseudovirus neutralization was 0.003 µg/mL.

And the IC50, pseudovirus neutralization [35]?
Its IC50, pseudovirus neutralization is 0.005 µg/mL.

And the IC80, pseudovirus neutralization [36]?
The IC80, pseudovirus neutralization was 0.126 µg/mL.

What about the IC80, pseudovirus neutralization [37] of the same binder?
The IC80, pseudovirus neutralization was 0.012 µg/mL.

And the IC50, pseudovirus neutralization [38]?
Its IC50, pseudovirus neutralization is 0.454 µg/mL.

What about the IC50, pseudovirus neutralization [39] of the same binder?
The IC50, pseudovirus neutralization was 0.003 µg/mL.

And the IC50, pseudovirus neutralization [40]?
The IC50, pseudovirus neutralization was greater than 50 µg/mL.

What about the IC80, pseudovirus neutralization [41] of the same binder?
The IC80, pseudovirus neutralization was greater than 50 µg/mL.

And the IC80, pseudovirus neutralization [42]?
The IC80, pseudovirus neutralization was 0.065 µg/mL.

What about the IC50, pseudovirus neutralization [43] of the same binder?
Its IC50, pseudovirus neutralization is 0.229 µg/mL.

And the IC50, pseudovirus neutralization [44]?
Its IC50, pseudovirus neutralization is 0.589 µg/mL.

What about the IC50, pseudovirus neutralization [45] of the same binder?
The IC50, pseudovirus neutralization was greater than 50 µg/mL.

What about the IC50, pseudovirus neutralization [46] of the same binder?
Its IC50, pseudovirus neutralization is 0.003 µg/mL.

And the IC50, pseudovirus neutralization [47]?
Its IC50, pseudovirus neutralization is greater than 50 µg/mL.

And the IC50, pseudovirus neutralization [48]?
Its IC50, pseudovirus neutralization is 0.003 µg/mL.
